Data set [1] deals with T1, recombinant AdV5 hexon protein (Human adenovirus C serotype 5 (HAdV-5), UniProt P04133). The data set can be described thus: cell-based or functional assay.
For data set [2], the target named is T1, recombinant AdV5 hexon protein. The data set can be described thus: SPR. As to conditions: both partners purified.
For data set [3] the target is unchanged. The data set is described as follows: SPR. To be noted: both partners purified. This is another data set of the same source.
Data set [4] deals with the molecule itself. The data set can be described thus: crystal structure; 9C12 Fab and hexon mixed 1:1 to a 5 mg/ml complex; crystals in 15% MPD, 5% PEG 4K, 0.1 M imidazole pH 8; 2.7 Å.

Changes are numbered by the printed parent chain. In names and notes the source's numbering stands.

As usually defined, the Kd is the equilibrium constant for the complex coming apart. What is called koff is the first-order rate constant of dissociation. What is called kon is a measure of how fast the partners come together.

B1: recombinant humanized IgG1 version of 9C12 (h9C12), wild type (antibody, V domains shown)
VH: VQLKQSGPGLLQPSQRLSITCTVSGFSLGRYGVHWIRQSPGKGLEWLGVIWRGGTTDYNAVFMSRLSINKDDSKSQVFFTMNSLRPDDTAIYYCARQGSNFPLAYWGQGTLVTVSA
VL: NIVMTQTPKFLLVSIGDSITITCKASQSVTNDAAWYQKKPGQSPQLLIYQASTRYTGVPDRFSGSGYGTDFTFTISAVQAEDLAVYFCHQDYSSPLTFGAGTKLELK
B1: in data set [1], the “neutralization of Adv5 infection in HEK293T cells” value is ~25 fold.

B2: 9C12 Fab (original mouse format, SPR) (Fab, V domains shown)
VH: B1 VH
VL: B1 VL
notes: also called mouse WT 9C12; source: gene fragment synthesized as cDNA; host stated only for the h9C12 variants (HEK293E)
Regarding B2, in data set [2], the Kd was 1 nM, the koff was found to be 0.00045 s⁻¹ and the kon is 447000 M⁻¹ s⁻¹.

B3: h9C12 Fab G98C/S99H (Fab, V domains shown)
VH: B1 VH with G98C, S99H
VL: B1 VL
notes: source: HEK293E, transiently co-transfected, purified (CaptureSelect CH1, SEC Superdex 75)
Regarding B3, in data set [2], the Kd amounted to 288 nM, the koff is 0.0052 s⁻¹ and the association rate constant (kon) was found to be 18000 M⁻¹ s⁻¹.

B4: h9C12 Fab W51E (Fab, V domains shown)
VH: B1 VH with W51E
VL: B1 VL
notes: as for B3
On to B4, for which, in data set [2], the Kd worked out at 16900 nM.

B5: h9C12 Fab G29R/R30S (Fab, V domains shown)
VH: B1 VH with G29R, R30S
VL: B1 VL
notes: as for B3
With B5, in data set [2], the Kd worked out at 92.8 nM, the koff was 0.0049 s⁻¹ and the kon was determined as 53000 M⁻¹ s⁻¹.

B6: h9C12 Fab (wild type) (Fab, V domains shown)
VH: B1 VH
VL: B1 VL
notes: also called WT h9C12; humanized 9C12; source: HEK293E, transiently co-transfected, purified (CaptureSelect CH1, SEC Superdex 75)
On to B6, for which, in data set [2], the Kd worked out at 0.8 nM, the koff was 0.00052 s⁻¹ and the kon is 635000 M⁻¹ s⁻¹.

B7: h9C12 Fab Q97A/S99A/F101A/L103A (Fab, V domains shown)
VH: B1 VH with Q97A, S99A, F101A, L103A
VL: B1 VL
notes: also called combined alanine mutations in H3; source: HEK293E, transiently co-transfected, purified (CaptureSelect CH1, SEC Superdex 75)
As to B7, the binding result in data set [3] was “no binding”.

B8: h9C12 Fab Q97A (Fab, V domains shown)
VH: B1 VH with Q97A
VL: B1 VL
notes: as for B3
Turning to B8, the Kd in data set [2] came out at 462 nM.

B9: h9C12 Fab T55S (Fab, V domains shown)
VH: B1 VH with T55S
VL: B1 VL
notes: as for B3
For B9, in data set [2], the Kd is 1.2 nM, the koff is 0.00095 s⁻¹ and the kon came to 795000 M⁻¹ s⁻¹.

B10: h9C12 Fab G32P (Fab, V domains shown)
VH: B1 VH with G32P
VL: B1 VL
notes: as for B3
On to B10, for which the binding result in data set [3] is “no binding”.

B11: h9C12 Fab G98P (Fab, V domains shown)
VH: B1 VH with G98P
VL: B1 VL
notes: as for B3
Regarding B11, in data set [3], the binding result is on record as “no binding”.

B12: h9C12 Fab Q97R (Fab, V domains shown)
VH: B1 VH with Q97R
VL: B1 VL
notes: as for B3
In the case of B12, the binding result in data set [3] is on record as “no binding”.

B13: h9C12 Fab N100A (Fab, V domains shown)
VH: B1 VH with N100A
VL: B1 VL
notes: as for B3
Take B13: in data set [2], the Kd is 0.9 nM, the koff was 0.00085 s⁻¹ and the kon came out at 889000 M⁻¹ s⁻¹.

B14: h9C12 Fab G53P (Fab, V domains shown)
VH: B1 VH with G53P
VL: B1 VL
notes: as for B3
For the molecule B14, in data set [2], the Kd was determined as 330 nM, the koff is 0.079 s⁻¹ and the kon stood at 239000 M⁻¹ s⁻¹.

B15: full-length Adv5 hexon protein (natural protein)
chain: MATPSMMPQWSYMHISGQDASEYLSPGLVQFARATETYFSLNNKFRNPTVAPTHDVTTDRSQRLTLRFIPVDREDTAYSYKARFTLAVGDNRVLDMASTYFDIRGVLDRGPTFKPYSGTAYNALAPKGAPNPCEWDEAATALEINLEEEDDDNEDEVDEQAEQQKTHVFGQAPYSGINITKEGIQIGVEGQTPKYADKTFQPEPQIGESQWYETEINHAAGRVLKKTTPMKPCYGSYAKPTNENGGQGILVKQQNGKLESQVEMQFFSTTEATAGNGDNLTPKVVLYSEDVDIETPDTHISYMPTIKEGNSRELMGQQSMPNRPNYIAFRDNFIGLMYYNSTGNMGVLAGQASQLNAVVDLQDRNTELSYQLLLDSIGDRTRYFSMWNQAVDSYDPDVRIIENHGTEDELPNYCFPLGGVINTETLTKVKPKTGQENGWEKDATEFSDKNEIRVGNNFAMEINLNANLWRNFLYSNIALYLPDKLKYSPSNVKISDNPNTYDYMNKRVVAPGLVDCYINLGARWSLDYMDNVNPFNHHRNAGLRYRSMLLGNGRYVPFHIQVPQKFFAIKNLLLLPGSYTYEWNFRKDVNMVLQSSLGNDLRVDGASIKFDSICLYATFFPMAHNTASTLEAMLRNDTNDQSFNDYLSAANMLYPIPANATNVPISIPSRNWAAFRGWAFTRLKTKETPSLGSGYDPYYTYSGSIPYLDGTFYLNHTFKKVAITFDSSVSWPGNDRLLTPNEFEIKRSVDGEGYNVAQCNMTKDWFLVQMLANYNIGYQGFYIPESYKDRMYSFFRNFQPMSRQVVDDTKYKDYQQVGILHQHNNSGFVGYLAPTMREGQAYPANFPYPLIGKTAVDSITQKKFLCDRTLWRIPFSSNFMSMGALTDLGQNLLYANSAHALDMTFEVDPMDEPTLLYVLFEVFDVVRVHRPHRGVIETVYLRTPFSAGNATT
notes: also called human adenovirus 5 hexon; source: purified from Adv5-infected cells (CsCl-gradient, size exclusion)
For the molecule B15, in data set [4], the binding result was “binds”.

Values taken from paper PMC5121590, “Antibody-antigen kinetics constrain intracellular humoral immunity” (Scientific Reports, 2016).
